Data set [1] deals with the molecule itself. Put plainly: negative-stain transmission electron microscopy; 0.1 mg/ml LipL41 on a glow-discharged copper grid, 2% uranyl acetate; class averages with EMAN2.
Data set [2] deals with the molecule itself. Description: SEC + AUC; LipL41-C100 in solution; data not shown.

Here are results for 5 proteins from paper PMC3861479, “LipL41, a Hemin Binding Protein from Leptospira santarosai serovar Shermani” (PLoS ONE, 2013).

Positions count from the first letter of the chain named. In names and notes the source's numbering stands.

Broadly, the stoichiometry N is a count of units in the complex or per binding partner.

B1: LipL41 C140A/C220A (natural protein)
chain: AATVDVEYPVFPKDKEGRALQKFLGTIRNVGLAVEPPKKSLWEAIFGEGSSFIDQMPSKVFEAFDKESYYKLTDLSKRADILNEATLSLTGITKSRAKIGNLIGAEAILYIGYQKPYTEASTENKIDAVAAGIKVAGFVASAATGKDVNTGNDPVSKPTGVRMMLIPLDATLIKVETGEVKKAVVSSPAKIFNSVGNLEAPSILDSFGQGLDEAAAYIKGRLSPIVKTERIKVFVKDEDEEVKELLQEGYEEIVGETPSFKKAKEAWEKADKKAKGQSWGAKANLATYYFSIGDFEKSIKLYEEAMKLKDADKSYLRELRKRVEATFAVDESNAK
notes: also called cysteine double mutant; HRM-mutated LipL41; source: E. coli, expression and purification similar to that of the wildtype
B1: the binding result in data set [1] is recorded as “binds”.

B2: LipL41 C140A (natural protein)
chain: B1 chain with A200C
notes: also called HRM-mutated LipL41; source: E. coli, expression and purification similar to that of the wildtype
Turning to B2, the binding result in data set [1] is given as “binds”.

B3: LipL41 C220A (natural protein)
chain: B1 chain with A120C
notes: as for B2
For the protein B3, in data set [1], the binding result is on record as “binds”.

B4: recombinant LipL41 (Ala21 - Lys355) with an N-terminal His6-tag (natural protein)
chain: B1 chain with A120C, A200C
notes: also called LipL41 wildtype; pRSET-LipL41; source: E. coli BL21(DE3), purified (Ni-NTA); copies: 36
As to B4, the “stoichiometry N” value in data set [1] was found to be 36.

B5: LipL41-C100 with a TPR-containing fragment of residues 256-355 (domain or fragment)
chain: KDEDEEVKELLQEGYEEIVGETPSFKKAKEAWEKADKKAKGQSWGAKANLATYYFSIGDFEKSIKLYEEAMKLKDADKSYLRELRKRVEATFAVDESNAK
notes: source: E. coli, expression and purification similar to that of the wildtype
As for B5, in data set [2], the “stoichiometry N” value came out at 2.
